We go through one molecule from PMC4388176.

The data set has as its target T1, Reb1 (146-504) (Schizosaccharomyces pombe, UniProt Q9P6H9).
T1 sequence: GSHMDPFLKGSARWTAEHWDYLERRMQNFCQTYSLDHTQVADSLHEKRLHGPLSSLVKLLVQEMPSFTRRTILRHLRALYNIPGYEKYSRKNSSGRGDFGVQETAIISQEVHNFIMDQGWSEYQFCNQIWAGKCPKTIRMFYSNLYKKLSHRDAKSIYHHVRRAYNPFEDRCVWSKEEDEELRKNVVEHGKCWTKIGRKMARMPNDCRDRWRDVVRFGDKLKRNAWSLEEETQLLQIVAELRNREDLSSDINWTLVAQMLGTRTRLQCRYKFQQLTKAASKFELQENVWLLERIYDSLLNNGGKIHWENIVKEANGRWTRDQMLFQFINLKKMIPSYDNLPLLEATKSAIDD
Kind of data set: X-ray crystallography.

B1: Ter3 26-mer (crystal) (dsDNA)
DNA 1: GTAAAAGGTAAGGGTAATGCACTTTT
DNA 2: CAAAAGTGCATTACCCTTACCTTTTA
In the case of B1, the binding result is given as “binds”.
